According to article PMC4298360:

Experiments:
[1] = molecular target: cynomolgus IL-2Rβγ heterodimeric Fc fusion (knobs-into-holes), biotinylated (cynomolgus) (UniProt Q38J85); experiment: SPR; Biacore T200; biotinylated IL2Rβγ-Fc heterodimer immobilised on streptavidin chips; 2-fold dilution series (1.2–300 nM) of IgG-IL-2 injected 2 min, dissociation up to 10 min; global fit, 1:1 interaction model
[2] = molecular target: human IL-2Rβγ heterodimeric Fc fusion (knobs-into-holes), biotinylated (human) (UniProt P14784); experiment: as above
[3] = molecular target: murine IL-2Rβγ heterodimeric Fc fusion (knobs-into-holes), biotinylated (murine) (UniProt P16297); experiment: as above
[4] = molecular target: cynomolgus IL-2Rβγ heterodimeric Fc fusion (knobs-into-holes), biotinylated (cynomolgus) (UniProt Q38J85)
[5] = molecular target: human IL-2Rβγ heterodimeric Fc fusion (knobs-into-holes), biotinylated (human) (UniProt P14784)
[6] = molecular target: cynomolgus IL-2Rβγ heterodimeric Fc fusion (knobs-into-holes), biotinylated (cynomolgus) (UniProt Q38J85); experiment: SPR; Biacore T200; biotinylated IL2Rβγ-Fc heterodimer immobilised on streptavidin chips; 2-fold dilution series (1.2–300 nM) of IgG-(IL-2)2 injected 2 min, dissociation up to 10 min; global fit, 1:1 interaction model despite bivalent binding: apparent KD
[7] = molecular target: human IL-2Rβγ heterodimeric Fc fusion (knobs-into-holes), biotinylated (human) (UniProt P14784); experiment: as above
[8] = molecular target: murine IL-2Rβγ heterodimeric Fc fusion (knobs-into-holes), biotinylated (murine) (UniProt P16297); experiment: as above

Chain of human IL-2Rβγ heterodimeric Fc fusion (knobs-into-holes), biotinylated (human) (P14784 27-240, chain 1 of 2): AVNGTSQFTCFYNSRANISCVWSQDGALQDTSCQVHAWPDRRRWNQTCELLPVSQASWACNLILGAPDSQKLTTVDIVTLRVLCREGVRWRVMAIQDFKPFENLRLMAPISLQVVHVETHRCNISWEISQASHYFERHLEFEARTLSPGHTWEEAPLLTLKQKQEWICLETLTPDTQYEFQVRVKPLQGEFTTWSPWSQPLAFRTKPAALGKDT
Chain of human IL-2Rβγ heterodimeric Fc fusion (knobs-into-holes), biotinylated (human) (P31785 23-262, chain 2 of 2, further chain): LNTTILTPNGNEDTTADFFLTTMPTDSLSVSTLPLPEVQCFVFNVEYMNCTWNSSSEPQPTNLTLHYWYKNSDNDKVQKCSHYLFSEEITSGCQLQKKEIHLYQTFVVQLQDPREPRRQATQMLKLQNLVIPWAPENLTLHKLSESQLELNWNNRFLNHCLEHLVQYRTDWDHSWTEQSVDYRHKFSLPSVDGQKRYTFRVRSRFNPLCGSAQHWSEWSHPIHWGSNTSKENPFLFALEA
Chain of IgG-(IL-2)2 (bivalent fusion of two wild-type human IL-2 to a non-targeted, effector-silent human IgG1) (P60568 21-153 limits assumed): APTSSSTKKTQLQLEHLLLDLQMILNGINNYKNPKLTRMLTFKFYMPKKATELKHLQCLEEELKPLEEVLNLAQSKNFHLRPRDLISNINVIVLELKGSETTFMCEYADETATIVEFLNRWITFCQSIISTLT
Chain of IgG-IL-2 (monovalent fusion of wild-type human IL-2 to a non-targeted, effector-silent human IgG1) (P60568 21-153 limits assumed): as above
Chain of murine IL-2Rβγ heterodimeric Fc fusion (knobs-into-holes), biotinylated (murine) (P16297 27-240, chain 1 of 2): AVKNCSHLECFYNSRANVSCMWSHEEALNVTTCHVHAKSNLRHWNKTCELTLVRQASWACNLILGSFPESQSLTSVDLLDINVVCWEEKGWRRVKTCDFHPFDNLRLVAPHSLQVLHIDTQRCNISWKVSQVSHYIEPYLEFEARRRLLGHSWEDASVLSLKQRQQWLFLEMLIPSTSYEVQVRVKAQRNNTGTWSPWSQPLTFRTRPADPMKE
Chain of murine IL-2Rβγ heterodimeric Fc fusion (knobs-into-holes), biotinylated (murine) (P34902 23-263, chain 2 of 2, further chain): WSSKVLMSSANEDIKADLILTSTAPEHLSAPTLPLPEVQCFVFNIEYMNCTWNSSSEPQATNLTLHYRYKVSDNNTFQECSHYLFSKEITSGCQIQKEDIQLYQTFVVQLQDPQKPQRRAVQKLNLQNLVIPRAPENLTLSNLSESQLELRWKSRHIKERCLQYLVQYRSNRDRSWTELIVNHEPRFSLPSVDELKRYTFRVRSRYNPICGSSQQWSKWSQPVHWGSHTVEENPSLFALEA

| Substance | Kd [1] | Kd [2] | Kd [3] | ED50 of pSTAT5a induction in cynomolgus Tregs in whole blood (30 min, 37 °C); the receptor meant is the IL-2 receptor on the cells [4] | ED50 of pSTAT5a induction in human Tregs in whole blood (30 min, 37 °C); the receptor meant is the IL-2 receptor on the cells [5] | Kd [6] | Kd [7] | Kd [8] |
| --- | --- | --- | --- | --- | --- | --- | --- | --- |
| IgG-IL-2 (monovalent fusion of wild-type human IL-2 to a non-targeted, effector-silent human IgG1) (from UniProt P60568 21-153) | 0.18 nM | 0.04 nM | 0.75 nM |  |  |  |  |  |
| IgG-(IL-2)2 (bivalent fusion of two wild-type human IL-2 to a non-targeted, effector-silent human IgG1) (from UniProt P60568 21-153) |  |  |  | 0.1 pM | 0.3 pM | 0.04 nM | 0.003 nM | 0.04 nM |
